Laboratory results as given in patent publication US20110059095A1 (Regeneron, published 2011).

B1: H4H588N (antibody, human IgG4, V domains shown)
VH: EVQLLESGGGLVQPGGSLRLSCAASGFTFSSYAMTWVRQAPGKGLYWVSAISGGRGSAYYADSVKGRFTISRDNSKNTLYLQMNSLRAEDTAVYYCAKEGDSGYDLAYWGRGTLVTVSS
VL: DIQMTQSPSSLSASVGDRVTITCRARQGISNNLAWLQQKPGKAPKSLIYAASSLQSGIPSKFSGSGSGTYFTLTISSLQPEDFATYYCQQYKSSPLTFGGGTKVEIK
notes: also called H2M588N variable regions
B2: H4H581P (antibody, human IgG4, V domains shown)
VH: QVQLVESGGGVVQPGRSLRLSCVASGFTFSRYGIHWVRQAPGKGLEWVIVISYDGINKYYADSVKGRFTISRDNSKNTVYLQMNSLRAEDTAVYYCAKGDFWSGYFDYWGQGTLVTVSS
VL: DIVMTQTPLSSPVTLGQPASISCRSSQSLVHSDGNTYLSWLHQRPGQPPRLLIYKISNRFSGVPDRFSGSGAGTDFTLQISRVEAEDVGIYYCMQATQFPTFGGGTKVEIK
notes: also called mAb H4H581P; H1H581P variable regions

Experiments:
[1] = biological target: T1, C-terminal biotinylated human PAR-2 peptide SEQ ID NO:872 (Gly-35 to Ala) (human, not fully specified; C-terminal biotin (K-B)); assay: alanine scan by biolayer interferometry (Octet Red): C-terminal biotin peptide on streptavidin tips, 200 nM antibody; T1/2 relative to wild-type peptide SEQ ID NO:871
T1 construct: alanine-scan mutant
T1 peptide: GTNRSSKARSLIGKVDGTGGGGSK
Procedure: (§1) In order to more particularly identify the amino acids of PAR-2 with which the PAR-2 antibodies interact, an alanine scanning study was carried out using peptides comprising the activating PAR-2 protease cleavage site.
(§2) The ability of each peptide mutant to bind to PAR-2 antibodies was measured using biolayer interferometry (Octet Red; ForteBio). Each peptide (2.5 μg/ml) was captured on streptavidin coated biosensor tips (Octet SA sensor) for 10 seconds. To measure binding and dissociation between each peptide and PAR-2 antibody, the peptide-coated biosensors were contacted with 200 nM solutions of PAR-2 antibodies for 5 minutes (binding) followed by transfer to buffer with no antibody for 10 min (dissociation). […] The results are expressed as percent binding and percent T_{1/2} relative to WT peptide (Tables 24-28).

[2] = biological target: T2, C-terminal biotinylated human PAR-2 peptide SEQ ID NO:876 (Ile-39 to Ala) (human, not fully specified; C-terminal biotin (K-B)); assay: as above
T2 construct: alanine-scan mutant
T2 peptide: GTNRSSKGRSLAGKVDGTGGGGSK
Procedure: as §1, §2

[3] = biological target: T3, C-terminal biotinylated human PAR-2 peptide SEQ ID NO:874 (Ser-37 to Ala) (human, not fully specified; C-terminal biotin (K-B)); assay: as above
T3 construct: alanine-scan mutant
T3 peptide: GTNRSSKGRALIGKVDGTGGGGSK
Procedure: as §1, §2

[4] = biological target: T4, C-terminal biotinylated human PAR-2 peptide SEQ ID NO:875 (Leu-38 to Ala) (human, not fully specified; C-terminal biotin (K-B)); assay: as above
T4 construct: alanine-scan mutant
T4 peptide: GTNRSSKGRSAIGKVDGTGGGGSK
Procedure: as §1, §2

[5] = biological target: T5, C-terminal biotinylated human PAR-2 peptide SEQ ID NO:880 (Asp-43 to Ala) (human, not fully specified; C-terminal biotin (K-B)); assay: as above
T5 construct: alanine-scan mutant
T5 peptide: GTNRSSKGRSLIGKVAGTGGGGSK
Procedure: as §1, §2

[6] = biological target: T6, C-terminal biotinylated human PAR-2 peptide SEQ ID NO:881 (Gly-44 to Ala) (human, not fully specified; C-terminal biotin (K-B)); assay: as above
T6 construct: alanine-scan mutant
T6 peptide: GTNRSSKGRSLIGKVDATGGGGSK
Procedure: as §1, §2

[7] = biological target: T7, C-terminal biotinylated human PAR-2 peptide SEQ ID NO:873 (Arg-36 to Ala) (human, not fully specified; C-terminal biotin (K-B)); assay: as above
T7 construct: alanine-scan mutant
T7 peptide: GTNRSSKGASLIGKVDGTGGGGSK
Procedure: as §1, §2

[8] = biological target: T8, C-terminal biotinylated human PAR-2 peptide SEQ ID NO:879 (Val-42 to Ala) (human, not fully specified; C-terminal biotin (K-B)); assay: as above
T8 construct: alanine-scan mutant
T8 peptide: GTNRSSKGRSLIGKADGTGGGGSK
Procedure: as §1, §2

[9] = biological target: T1, C-terminal biotinylated human PAR-2 …; assay: BLI Exp1
Procedure: as §1, §2

[10] = biological target: T9, C-terminal biotinylated human PAR-2 peptide SEQ ID NO:871 (wild-type) (human, not fully specified; C-terminal biotin (K-B)); assay: BLI Exp1
T9 construct: also called WT peptide
T9 peptide: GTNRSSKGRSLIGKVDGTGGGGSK
Procedure: as §1, §2

[11] = biological target: T10, C-terminal biotinylated human PAR-2 peptide SEQ ID NO:882 (Thr-45 to Ala) (human, not fully specified; C-terminal biotin (K-B)); assay: BLI Exp1
T10 construct: alanine-scan mutant
T10 peptide: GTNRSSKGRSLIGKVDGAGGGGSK
Procedure: as §1, §2

[12] = biological target: T3, C-terminal biotinylated human PAR-2 …; assay: BLI Exp1
Procedure: as §1, §2

[13] = biological target: T4, C-terminal biotinylated human PAR-2 …; assay: BLI Exp1
Procedure: as §1, §2

[14] = biological target: T6, C-terminal biotinylated human PAR-2 …; assay: BLI Exp1
Procedure: as §1, §2

[15] = biological target: T11, C-terminal biotinylated human PAR-2 peptide SEQ ID NO:877 (Gly-40 to Ala) (human, not fully specified; C-terminal biotin (K-B)); assay: BLI Exp1
T11 construct: alanine-scan mutant
T11 peptide: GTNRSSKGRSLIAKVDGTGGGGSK
Procedure: as §1, §2

[16] = biological target: T12, C-terminal biotinylated human PAR-2 peptide SEQ ID NO:878 (Lys-41 to Ala) (human, not fully specified; C-terminal biotin (K-B)); assay: BLI Exp1
T12 construct: alanine-scan mutant
T12 peptide: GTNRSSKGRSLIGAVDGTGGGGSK
Procedure: as §1, §2

[17] = biological target: T8, C-terminal biotinylated human PAR-2 …; assay: BLI Exp1
Procedure: as §1, §2

Binder | percent of T1/2 relative to wild-type peptide (average of duplicate experiments) [1] | percent of T1/2 relative to wild-type peptide (average of duplicate experiments) [2] | percent of T1/2 relative to wild-type peptide (average of duplicate experiments) [3] | percent of T1/2 relative to wild-type peptide (average of duplicate experiments) [4] | percent of T1/2 relative to wild-type peptide (average of duplicate experiments) [5] | percent of T1/2 relative to wild-type peptide (average of duplicate experiments) [6] | percent of T1/2 relative to wild-type peptide (average of duplicate experiments) [7] | percent of T1/2 relative to wild-type peptide (average of duplicate experiments) [8] | % Rel Binding [9] | % Rel T1/2 [9] | % Rel Binding [10] | % Rel T1/2 [10] | % Rel Binding [11] | % Rel T1/2 [11] | % Rel Binding [12] | % Rel T1/2 [12] | % Rel Binding [13] | % Rel T1/2 [13] | % Rel Binding [14] | % Rel T1/2 [14] | other results
B1 | 177% | 22% | 85% | 71% | 4.5% | 1% | 140% | 0.5% | 122% | 100% | 100% | 100% | 125% | 94% | 119% | 100% | 127% | 100% | 81% | 1% | % Rel Binding [15]: 30%; % Rel T1/2 [15]: 1%; % Rel Binding [16]: 217%; % Rel T1/2 [16]: 108%; % Rel Binding [17]: 74%; % Rel T1/2 [17]: 1%
B2 | 118% | 0.1% | 5% | 0.2% | 20% | 121% | 106% | 1% | 78% | 118% | 100% | 100% | 65% | 129% | 45% | 7% | 9% | 0.4% | 67% | 117% | % Rel Binding [15]: 101%; % Rel T1/2 [15]: 33%; % Rel Binding [16]: 113%; % Rel T1/2 [16]: 63%; % Rel Binding [17]: 36%; % Rel T1/2 [17]: 1%
